Measured values published in US7303752B2, “Hookworm vaccine” (The George Washington University, priority 2001, dated 2007).

B1: Ac-AP: A. caninum factor Xa inhibitor anticoagulant, SEQ ID NO: 54; * marks the single dog with positive immune response (protein, listed as Ancylostoma caninum)
chain: KAYPECGENEWLDDCGTQKPCEAKCNEEPPEEEDPICRSRGCLLPPACVCKDGFYRDTVIGDCVREEECDQHEIIHV
B2: Na-ASP-1: Necator americanus secreted protein antigen, SEQ ID NO: 2; Pichia-expressed recombinant (protein, listed as Necator americanus)
chain: MFSPVVVSVVFTIAFCNASPARDSFGCSNSGITDSDRQAFLDFHNNARRRVAKGLEDSNSGKLNPAKNMYKLSWDCAMEQQLQDAIQSCPSGFAGIQGVAQNTMSWSSSGGYPDPSVKIEPTLSGWWSGAKKNGVGPDNKYTGGGLFAFSNMVYSETTKLGCAYKVCGTKLAVSCIYNGVGYITNQPMWETGQACQTGADCSTYKNSGCEDGLCTKGPDVPETNQQCPSNTGMTDSVRDTFLSVHNEFRSSVARGLEPDALGGNAPKAAKMLKMVYDCEVEASAIRHGNKCVYQHSHGEDRPGLGENIYKTSVLKFDKNKAAKQASQLWWNELKEYGVGPSNVLTTALWNRPNMQIGHYTQMAWDTTYKLGCAVVFCNDFTFGVCQYGPGGNYMGHVIYTMGQPCSQCSPGATCSVTEGLCSAP

Columns and labels:
[1] = system: antigen-specific canine IgG1 antibodies; assay: ELISA of antigen-specific canine IgG1, trial with Ac-TMP, Ac-AP, Ac-APR-1; assay type: in vivo, dog; settings: five of the six vaccinated dogs
Procedure: Canine Immunizations: A four-dose immunization schedule was selected (Table II). Each of the dogs was vaccinated by subcutaneous immunization at two sites in the shoulder, through a 22 gauge needle. The volume of the injections ranged between 0.5 and 1.0 ml. Four doses of each antigen were administered over a 38-day period. The first two injections (primary immunization) were administered on days 1 and 4, and the final two immunizations (boosts) were administered on days 34 and 38. Dogs in the control group were injected with an equivalent amount of alum.
Canine antibody measurements: Blood was collected weekly by venipuncture and the serum was separated and stored frozen at −20° C. Antigen-specific canine IgG1 antibodies were measured by indirect enzyme-linked immunosorbent assay (ELISA). Other IgG subclasses were not measured due to the unavailability of suitable high-quality canine-specific reagents. The optimal concentrations of sample sera and enzyme-linked detection antibody were determined by checkerboard titrations. Optimal antigen concentrations were determined by using a saturation technique. […] The plates were incubated in the dark for 30 minutes and read at a wavelength of 405 nm on a SpectraMax 240 PC reader (Molecular Devices, Sunnyvale, Calif.) with SOFTmax Pro software (Molecular Devices, Sunnyvale, Calif.). […]

A. caninum = assay: Canine vaccine trial with Ac-TMP, Ac-AP, Ac-APR-1, oral challenge with 400 A. caninum L3; assay type: in vivo, dog
From the text: Study dogs and animal husbandry: Following protocol approval by The George Washington University Institutional Animal Care and Use Committee (IACUC), purpose bred, parasite naïve, male beagles 8±1 week of age were purchased, identified by ear tattoo, and maintained in the AALAC (Association for Assessment and Accreditation of Laboratory Animal Care) accredited George Washington University Animal Research Facility. The dogs were housed in a room dedicated for the study, at a room temperature of 70±4° F., with 10-15 air changes per hour comprised of 100 percent fresh air, and 12 hr light cycles alternating with 12 hr dark cycles. The airflow and timer functions were monitored daily. The dogs were fed on a diet of Teklad Certified Dog Chow #8727, supplemented with a canned soft diet in the event of anorexia. The drinking water was piped from a filter plant and delivered via automatc water system; water analysis was performed by the U.S. Army Corps of Engineers. Water from the facilities automatic system is cultured for bacteria and fungi annually. The pens were flushed daily and sanitized every two weeks. Dogs within a given study group were permitted to live together and socialize prior to the hookworm larval challenge, but were caged individually post-infection. All dogs were quarantined for approximately one week before beginning the vaccine trial. Prior to vaccination a complete blood count (CBC), serum chemistries, and a pre-vaccination serum sample were obtained.
Vaccine study design and sample size: The vaccine trial was designed to test three different antigens, each formulated with alum, as well as an alum adjuvant control. A total of 24 dogs were randomly assigned into four groups comprised of 6 dogs each. The canine sample size was selected on the ability to detect a 40-50 percent reduction in the numbers of adult hookworms in the small intestines of the vaccinated group relative to control dogs, at a statistical power of 80 percent (alpha=0.05, two-tailed). The data were derived from the mean and standard deviation of adult hookworms previously recovered from age-matched dogs infected with 400 A. caninum L3 (Hotez et al, 2002).
Recombinant Antigens: Each group of 6 dogs was vaccinated with recombinant hookworm proteins expressed as fusion proteins either in Escherichia coli or in an insect cell line with baculovirus. Ac-AP (Cappello et al, 1995; 1996) and Ac-TMP, were expressed in E. coli as pET 28 (Novagen) fusion proteins containing a polyhistidine tag (Cappello et al, 1996). Ac-APR-1 (Harrop et al, 1996) was expressed in a baculovirus pBacPAK6 vector (Clontech), modified to contain a polyhistidine-encoding sequence and additional restriction enzyme sites (Brindley et al, 2001). Recombinant Ac-AP and Ac-TMP fusion proteins were then purified by nickel affinity chromatography, followed by a second step of purification. In the case of Ac-AP (Cappello et al, 1995; 1996), the recombinant protein was purified by mono-S (Amersham-Pharmacia) ion exchange chromatography, while Ac-TMP (Zhan et al, 2002) was purified by superdex 75 (Amersham-Pharmacia) gel filtration chromatography. Ac-APR-1 (Harrop et al, 1996) was purified by substrate affinity chromatography using pepstatin agarose (Brindley et al, 2001). The antigen stock protein concentration was determined by Pierce Micro BCA assay (Pierce Chemicals) or by the absorbance of the sample at […] using an extinction coefficient that was calculated from the deduced amino acid composition of the fusion protein. The amount of alum adsorbed protein in each dose of antigen was measured by the Pierce Micro BCA assay using a bovine serum albumin standard. The relative purity of each of the antigens relative to contaminating E. coli or insect cell proteins was determined by analysis on sodium dodecyl sulfate polyacrylamide gel electrophoresis (SDS-PAGE). […]

CD-4+lymphocytes = assay: Intracellular cytokine staining of antigen-stimulated CD4+ lymphocytes of hookworm-infected residents; assay type: cell-based, human; settings: CD4+ lymphocytes from whole blood of hookworm infected residents
Procedure: The underlying immunological mechanisms accounting for this observation has been investigated. Shown in FIGS. 40 and 41, CD-4+lymphocytes were gated from the whole blood of hookworm infected residents and stimulated with either L3 soluble hookworm antigen FIG. 40) or Pichia-expressed recombinant Na-ASP-1 (FIG. 41). Host cytokine production was measured by an intracellular cytokine staining technique. […] IL-10 is a strong immunomodulator with downregulatory, anti-inflammatory properties, and IL-4 is associated with antibody production and TH-2 type immunity.

[2] = single dog with positive immune response

Molecule | immunological response to the antigen [1] | % Decrease of adult hookworms in the small intestines relative to alum-injected dogs (A. caninum; group) [%] | % Increase of adult hookworms in the colons relative to alum-injected dogs (A. caninum; group) [%] | adult A. caninum hookworms in the colons, Median (A. caninum; group median, alum control 4) | adult hookworms in the small intestines, Median (A. caninum; group median, alum control 180) | small intestine to colon hookworm burden ratio (A. caninum; single dog with anti-Ac-AP antibody response) | % Decrease of adult hookworms in the small intestine relative to alum-injected dogs (A. caninum; [2]) [%] | % Increase of adult hookworms in the colon relative to alum-injected dogs (A. caninum; [2]) [%] | adult A. caninum hookworms in the colon, Mean (A. caninum; [2]) | adult A. caninum hookworms in the colon, Median (A. caninum; [2]) | adult hookworms in the small intestine, Mean (A. caninum; [2]) | adult hookworms in the small intestine, Median (A. caninum; [2]) | host cytokine production (CD-4+lymphocytes)
B1 | failed to respond immunologically | 4.5 | 183 | 14 | 170 | 1.6 | 34.7 | 1083 | 71 | 71 | 115 | 115 | 
B2 |  |  |  |  |  |  |  |  |  |  |  |  | high levels of IL-10 and IL-5, but not IL-4
